# PMC8682772, “Negative feedback for DARS2–Fis complex by ATP–DnaA supports the cell cycle-coordinated regulation for chromosome replication” (Nucleic Acids Research, 2021)
# Several values for one entry are separate records, joined by “and”; a condition that tells them apart may be missing. Equal entries are not always repeated.
# T1: DnaA (Escherichia coli, UniProt P03004 1-467)
# T1 sequence: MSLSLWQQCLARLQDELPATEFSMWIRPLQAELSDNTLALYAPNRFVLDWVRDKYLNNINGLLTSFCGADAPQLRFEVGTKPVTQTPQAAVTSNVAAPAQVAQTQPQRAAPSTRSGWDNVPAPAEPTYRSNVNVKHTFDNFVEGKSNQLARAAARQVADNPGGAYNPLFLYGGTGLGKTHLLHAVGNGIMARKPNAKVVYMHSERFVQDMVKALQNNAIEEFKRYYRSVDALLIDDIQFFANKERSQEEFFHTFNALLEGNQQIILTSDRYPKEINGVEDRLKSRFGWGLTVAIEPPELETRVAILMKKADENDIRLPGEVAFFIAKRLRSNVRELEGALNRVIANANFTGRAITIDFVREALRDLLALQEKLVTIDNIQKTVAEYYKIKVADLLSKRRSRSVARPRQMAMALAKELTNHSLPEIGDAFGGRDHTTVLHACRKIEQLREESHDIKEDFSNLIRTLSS
# Experiments:
# Fis = Fis (Escherichia coli, UniProt P0A6R3 1-98); experiment: EMSA; C1 at 100-200 nM Fis, C2 at >=360 nM; EMSA: 20 mM HEPES-KOH pH 7.6, 80 mM KCl, 1 mM EDTA, 4 mM DTT, 5 mM Mg acetate, 0.1 mg/ml BSA, 10% glycerol, 3 uM ATP or ADP, lambda-DNA competitor, 35 nM DNA, 30 C 5 min; pull-down in same buffer with 400 nM FBS1 competitor, preincubations on ice; settings: protein: recombinant; chain copies: 2; blunt
# Sequence of Fis (P0A6R3 whole entry): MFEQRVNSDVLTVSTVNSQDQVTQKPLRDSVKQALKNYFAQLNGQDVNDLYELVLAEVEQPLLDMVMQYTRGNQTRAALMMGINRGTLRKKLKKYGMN
# DnaA;Fis = DnaA;Fis (Escherichia coli;Escherichia coli, UniProt P03004;P0A6R3 1-467;1-98, |); experiment: EMSA; ADP; DnaA and Fis bind independently; EMSA: 20 mM HEPES-KOH pH 7.6, 80 mM KCl, 1 mM EDTA, 4 mM DTT, 5 mM Mg acetate, 0.1 mg/ml BSA, 10% glycerol, 3 uM ATP or ADP, lambda-DNA competitor, 35 nM DNA, 30 C 5 min; pull-down in same buffer with 400 nM FBS1 competitor, preincubations on ice; settings: protein: recombinant;recombinant; tags: ;; copies: 1;2; blunt
# Sequence of DnaA;Fis (P0A6R3 whole entry, one chain of several): as the sequence (P0A6R3 whole entry) above
# DnaA [1] = molecular target: T1, DnaA; experiment: EMSA; ATP; oligomers, trimer C3 a major form at >=480 nM DnaA; EMSA: 20 mM HEPES-KOH pH 7.6, 80 mM KCl, 1 mM EDTA, 4 mM DTT, 5 mM Mg acetate, 0.1 mg/ml BSA, 10% glycerol, 3 uM ATP or ADP, lambda-DNA competitor, 35 nM DNA, 30 C 5 min; pull-down in same buffer with 400 nM FBS1 competitor, preincubations on ice; settings: protein: recombinant; blunt
# DnaA [2] = molecular target: T1, DnaA; experiment: EMSA; ATP; trimer formation not considerably inhibited; EMSA: 20 mM HEPES-KOH pH 7.6, 80 mM KCl, 1 mM EDTA, 4 mM DTT, 5 mM Mg acetate, 0.1 mg/ml BSA, 10% glycerol, 3 uM ATP or ADP, lambda-DNA competitor, 35 nM DNA, 30 C 5 min; pull-down in same buffer with 400 nM FBS1 competitor, preincubations on ice; settings: protein: recombinant; blunt
# DnaA [3] = molecular target: T1, DnaA; experiment: EMSA; ATP; binding inhibited completely; EMSA: 20 mM HEPES-KOH pH 7.6, 80 mM KCl, 1 mM EDTA, 4 mM DTT, 5 mM Mg acetate, 0.1 mg/ml BSA, 10% glycerol, 3 uM ATP or ADP, lambda-DNA competitor, 35 nM DNA, 30 C 5 min; pull-down in same buffer with 400 nM FBS1 competitor, preincubations on ice; settings: protein: recombinant; blunt
# DnaA [4] = molecular target: T1, DnaA; experiment: EMSA; ADP; monomer to trimer complexes at suboptimal DnaA; EMSA: 20 mM HEPES-KOH pH 7.6, 80 mM KCl, 1 mM EDTA, 4 mM DTT, 5 mM Mg acetate, 0.1 mg/ml BSA, 10% glycerol, 3 uM ATP or ADP, lambda-DNA competitor, 35 nM DNA, 30 C 5 min; pull-down in same buffer with 400 nM FBS1 competitor, preincubations on ice; settings: protein: recombinant; blunt
# [5] = molecular target: the molecule itself; experiment: native gel or EMSA; DnaA preincubated with 3 uM ATP, then 30°C for 5 min in buffer G (20 mM HEPES–KOH pH 7.6, 80 mM KCl, 1 mM EDTA, 4 mM DTT, 5 mM magnesium acetate, 0.1 mg/ml BSA, 10% glycerol) with 35 nM 52-bp DARS2 FBS2–5 DNA and competitor λ-DNA; 7% polyacrylamide gel; oligomers counted as DnaA molecules on the DNA fragment (C1–C4)
binder,measurement,setting,value
FBS2-5 WT (dsDNA) DNA 1: GGGTTGGCGAAAGATCAACCAATGCCGTATTTATCCACAGAATGTGCCACTA DNA 2: TAGTGGCACATTCTGTGGATAAATACGGCATTGGTTGATCTTTCGCCAACCC,binding result,Fis,binds
same,binding result,DnaA;Fis,binds
same,binding result,DnaA [1],binds
FBS2-5 subDnaA box V-c (dsDNA) DNA 1: GGGTTGGCGGGGGGCCGACCAATGCCGTATTTATCCACAGAATGTGCCACTA DNA 2: TAGTGGCACATTCTGTGGATAAATACGGCATTGGTCGGCCCCCCGCCAACCC,binding result,DnaA [2],binds
FBS2-5 subDnaA box V (dsDNA) DNA 1: GGGTTGGCGAAAGATCAACCAATGCCGTATACAGGCACTGAATGTGCCACTA DNA 2: TAGTGGCACATTCAGTGCCTGTATACGGCATTGGTTGATCTTTCGCCAACCC,binding result,DnaA [3],no binding
oriC R5MI2 R14 (dsDNA) DNA 1: TCATTACCTGTGGATAACCTGTGGATAACCTGTGGATAACCTGTGGATAAAATGA DNA 2: TCATTTTATCCACAGGTTATCCACAGGTTATCCACAGGTTATCCACAGGTAATGA,binding result,DnaA [4],binds
"DnaA (replication initiator protein of Escherichia coli) (natural protein, UniProt P03004 1-467, looked up, DnaA, chromosomal replication initiator protein, Escherichia coli; four domains, Arg finger Arg285 in domain III; Preincubated with 3 uM ATP (ATP–DnaA) or ADP (ADP–DnaA) before the EMSA; The nucleotide state is told by the assay, not by a separate molecule; also called ATP–DnaA; ADP–DnaA; source: purified protein) MSLSLWQQCLARLQDELPATEFSMWIRPLQAELSDNTLALYAPNRFVLDWVRDKYLNNINGLLTSFCGADAPQLRFEVGTKPVTQTPQAAVTSNVAAPAQVAQTQPQRAAPSTRSGWDNVPAPAEPTYRSNVNVKHTFDNFVEGKSNQLARAAARQVADNPGGAYNPLFLYGGTGLGKTHLLHAVGNGIMARKPNAKVVYMHSERFVQDMVKALQNNAIEEFKRYYRSVDALLIDDIQFFANKERSQEEFFHTFNALLEGNQQIILTSDRYPKEINGVEDRLKSRFGWGLTVAIEPPELETRVAILMKKADENDIRLPGEVAFFIAKRLRSNVRELEGALNRVIANANFTGRAITIDFVREALRDLLALQEKLVTIDNIQKTVAEYYKIKVADLLSKRRSRSVARPRQMAMALAKELTNHSLPEIGDAFGGRDHTTVLHACRKIEQLREESHDIKEDFSNLIRTLSS",stoichiometry N,[5],3 and 4
